Ends that are not written are not given here.
What was measured:
[1] = Sizes of complexes by quasi-elastic light scattering; type: physicochemical; details: complexes (-/+) [1:4], 6 µg DNA (pTG11033), 500 µl; for Sizes in ultrafiltrated serum: ultrafiltrated foetal calf serum
Experimental: Sizes of complexes prepared with a plasmid DNA (PTG11033; see EP-A 890 32, 9.6 kb) and the C1qA (4-26) peptide (see Table I) were evaluated. Complexes were formulated either in 5% glucose or in ultrafiltrated foetal calf serum (YM10 Amicon membrane). Formulation was made in 500 µl buffer, with 6 µg DNA and the quantity of peptide necessary to form a [1:4], [-:+] complex. As a control a polylysine SV40 NLS peptide was used. […] When oxidized, the dimerized C1qA peptide could form even smaller complexes, whatever the formulation buffer used. The reasonable sizes obtained in ultrafiltrated serum with C1qA peptides is an advantage for the use of this peptide rather than polylysine derivatives.
Complexes (-/+):[1:4], 6 µg DNA, 500 µl.
Size measures: quasi-elastic light scattering, COULTER N4+. [formula] [formula] [formula] [formula]

plasmid pTG11033 = assay: Gel retardation assay (agarose gel electrophoresis); type: binding
Experimental: Gel retardation assay was performed with C1qA (4-26) in several buffers: PBS, TBS, 5% glucose, or ultrafiltrated serum (YM10 Amicon membrane). DNA and peptides have been mixed at charge ratios [-/+] of [1:4], [1:1] and [1:0.2].

Substance | Sizes in 5% glucose [1] | Sizes in ultrafiltrated serum [1] | retardation in DNA (plasmid pTG11033; charge ratio [-/+] [1:1]) | association of DNA to the peptides (plasmid pTG11033; charge ratio [-/+] [1:4], PBS, TBS, 5% glucose or ultrafiltrated serum, absence of visible band with ethidium bromide)
SP-1052 oxidized: When oxidized, the dimerized C1qA peptide (CRAPDGKKGEAGRPGRRGRPGLK; also: oxidized disulfide dimer; UniProt P02745 26-48, looked up, fragment) | 200 nm | 300 nm |  | 
SP-1052: C1qA (4-26) peptide, complexed with plasmid DNA (CRAPDGKKGEAGRPGRRGRPGLK; also: complexed with plasmid DNA; UniProt P02745 26-48, looked up, fragment) | 1µm | 300-500 nm | significative retardation | strong association of DNA to the peptides

Reference: patent publication EP1052288A1, “Complex for transferring an anionic substance of interest into a cell” (TRANSGENE S.A., priority 1999, dated 2000)
